Patent US20030017991

Target: APP695 with C-terminal dilysine and the mutation KM-DA594-597 to SYEA594-597, expressed in HEK 293 derivative cells, P05067
Sequence (P05067 whole entry, looked up, change not shown, tested part not stated): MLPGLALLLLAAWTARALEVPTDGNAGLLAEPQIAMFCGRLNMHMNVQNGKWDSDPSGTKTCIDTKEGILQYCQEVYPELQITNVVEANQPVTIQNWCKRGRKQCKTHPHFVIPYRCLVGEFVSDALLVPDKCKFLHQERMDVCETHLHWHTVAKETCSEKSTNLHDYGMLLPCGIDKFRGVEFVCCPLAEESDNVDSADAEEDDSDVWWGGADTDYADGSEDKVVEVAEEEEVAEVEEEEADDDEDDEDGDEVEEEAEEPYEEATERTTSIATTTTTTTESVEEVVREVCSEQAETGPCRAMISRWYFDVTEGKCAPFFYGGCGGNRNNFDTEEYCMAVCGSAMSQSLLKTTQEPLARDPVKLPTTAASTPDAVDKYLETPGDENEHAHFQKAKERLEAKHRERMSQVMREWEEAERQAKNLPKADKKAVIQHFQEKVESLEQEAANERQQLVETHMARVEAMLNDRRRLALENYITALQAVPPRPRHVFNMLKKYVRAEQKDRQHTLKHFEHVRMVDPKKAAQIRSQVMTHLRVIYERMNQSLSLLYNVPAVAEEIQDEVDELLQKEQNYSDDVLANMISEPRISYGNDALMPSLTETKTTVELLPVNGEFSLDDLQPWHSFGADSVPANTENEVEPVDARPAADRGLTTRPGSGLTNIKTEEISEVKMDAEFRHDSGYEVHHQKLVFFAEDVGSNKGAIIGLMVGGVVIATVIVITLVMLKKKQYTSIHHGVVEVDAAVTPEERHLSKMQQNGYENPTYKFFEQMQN

B1: Hu-Asp2 expressed in a stable HEK-293 derivative cell line (higher levels of Hu-Asp2) (protein)
chain: ETDEEPEEPGRRGSFVEMVDNLRGKSGQGYYVEMTVGSPPQTLNILVDTGSSNFAVGAAPHPFLHRYYQRQLSSTYRDLRKGVYVPYTQGKWEGELGTDLVSIPHGPNVTVRANIAAITESDKFFINGSNWEGILGLAYAEIARPDDSLEPFFDSLVKQTHVPNLFSLHLCGAGFPLNQSEVLASVGGSMIIGGIDHSLYTGSLWYTPIRREWYYEVIIVRVEINGQDLKMDCKEYNYDKSIVDSGTTNLRLPKKVFEAAVKSIKAASSTEKFPDGFWLGEQLVCWQAGTTPWNIFPVISLYLMGEVTNQSFRITILPQQYLRPVEDVATSQDDCYKFAISQSSTGTVMGAVIMEGFYVVFDRARKRIGFAVSACHVHDEFRTAAVEGPFVTLDMEDCGYNIPQTDESTLMTIAYVMAAICALFMLPLCLMVCQWRCLRCLRQQHDDFADDISLLK
production of the β-secretase cleavage product CTF-99 (Western blot with antibody C8): both mutant APP variants were proficiently cleaved by Asp2
